The chains are these.
B1: "Na(+)/H(+) exchange regulatory cofactor NHE-RF1" (Homo sapiens), O14745 (parent)
chain: MSADAAAGAPLPRLCCLEKGPNGYGFHLHGEKGKLGQYIRLVEPGSPAEKAGLLAGDRLVEVNGENVEKETHQQVVSRIRAALNAVRLLVVDPETDEQLQKLGVQVREELLRAQEAPGQAEPPAAAEVQGAGNENEPREADKSHPEQRELRPRLCTMKKGPSGYGFNLHSDKSKPGQFIRSVDPDSPAEASGLRAQDRIVEVNGVCMEGKQHGDVVSAIRAGGDETKLLVVDRETDEFFKKCRVIPSQEHLNGPLPVPFTNGEIQKENSREALAEAALESPRPALVRSASSDTSEELNSQDSPPKQDSTAPSSTSSSDPILDFNISLAMAKERAHQKRSSKRAPQMDWSKKNELFSNL

Variants of B1 are the subject of the assay. The conditions noted are these: with CFTR.
Turning to MSADAAAGAPLPRLCCLEKGPNGYGFHLHGEKGKLGQYIRLVEPGSPAEKAGLLAGDRLVEVNGENVEKETHQQVVSRIRAALNAVRLLVVDPETDEQLQKLGVQVREELLRAQEAPGQAEPPAAAEVQGAGNENEPREADKSHPEQRELRPRLCTMKKGPSGYGFNLHSDKSKPGQFIRSVDPDSPAEASGLRAQDRIVEVNGVCMEGKQHGDVVSAIRAGGDETKLLVVDRETDEFFKKCRVIPSQEHLNGPLPVPFTNGEIQKENSREALAEAALESPRPALVRSASSDTSEELNSQDSPPKQDSTAPSSTSSSDPILDFNISLAMAKERAHQKRSSKRAPQMDWSKKNALFSNL [E353A], the “effect of a mutation on the interaction” value is “decreasing interaction”.

For the origin of these results see IntAct's records for PubMed 19446522.
